Experimental data from publication PMC3782497, “Unique Structure and Dynamics of the EphA5 Ligand Binding Domain Mediate Its Binding Specificity as Revealed by X-ray Crystallography, NMR and MD Simulations” (PLoS ONE, 2013).
Bridge positions count the residues as written; N and C are the ends. Square brackets hold non-standard residues; d marks the D form. Primed or numbered codes have the meaning given here. Ends that are not written are not given here. PEG2′ = not defined here

B1: modified WDC peptide (WDCNGPYCHWLG-(PEG)2-KK), synthetic (peptide)
peptide: WDCNGPYCHWLG[PEG2′]KK
modifications: disulfide 3-8
notes: WDC peptide; two lysines joined to the peptide through (PEG)2, which is not an amino acid linker; also called synthetic WDC peptide; source: synthetic peptide (Anaspec, Inc.)
B2: WDC antagonistic peptide (WDCNGPYCHWLG), bacterially expressed (peptide)
peptide: WDCNGPYCHWLG
modifications: disulfide 3-8 (inferred)
notes: 12-residue peptide previously identified in a phage-display screen on the extracellular domain of rat EphA5; Cloned through BamHI into a modified pGEX-4T-1; also called WDC peptide; recombinant peptide; source: E. coli Rosetta-gami (DE3), GST fusion, released by in-gel thrombin cleavage, HPLC purified

Experiments:
[1] = target: T1, rat EphA5 Fc (rat, UniProt P54757 27-575); experiment: ELISA; rat EphA5 Fc (1 µg/mL) held on Protein A-coated wells; different concentrations of synthetic WDC with 0.6 nM ephrin-A5 AP for 1 hour; bound AP detected with pNPP; IC50 by non linear regression; conditions: both partners purified
T1 construct: EphA5, rat, Fc fusion; source: bought: R&D Systems

[2] = target: T2, human EphA5 ligand-binding domain (LBD), residues 59-235 (human, UniProt P54756 59-235, K232E (from the reverse primer; not stated by the paper) | C233A (from the …, disulfide bridges Cys137-Cys147 and Cys102-Cys220; 15N-labelled for the NMR titration); experiment: ITC; EphA5 LBD in the cell, bacterially expressed WDC in the syringe; 10 mM phosphate buffer pH 6.3, 25°C; single binding site model; conditions: both partners purified
T2 construct: Cloned through BamHI into a modified pET32a and released by thrombin, so extra N-terminal residues (probably GS) may remain; also called EphA5 LBD; source: E. coli Rosetta-gami (DE3), purified (Ni-NTA, thrombin cleavage, gel filtration, Mono Q)
T2 sequence (P54756 59-235 K232E/C233A): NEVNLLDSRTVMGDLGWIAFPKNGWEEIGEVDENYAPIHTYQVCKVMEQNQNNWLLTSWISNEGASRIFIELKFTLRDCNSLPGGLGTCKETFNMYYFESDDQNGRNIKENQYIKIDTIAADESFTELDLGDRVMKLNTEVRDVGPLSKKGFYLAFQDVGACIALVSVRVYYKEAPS

[3] = target: human EphA5 ligand-binding domain (LBD), residues 59-235 (human, UniProt P54756 59-235, K232E (from the reverse primer; not stated by the paper) | C233A (from the …, disulfide bridges Cys137-Cys147 and Cys102-Cys220; 15N-labelled for the NMR titration); experiment: ITC
Target sequence in this assay (P54756 59-235 K232E/C233A): as above

T1 sequence (P54757 27-575): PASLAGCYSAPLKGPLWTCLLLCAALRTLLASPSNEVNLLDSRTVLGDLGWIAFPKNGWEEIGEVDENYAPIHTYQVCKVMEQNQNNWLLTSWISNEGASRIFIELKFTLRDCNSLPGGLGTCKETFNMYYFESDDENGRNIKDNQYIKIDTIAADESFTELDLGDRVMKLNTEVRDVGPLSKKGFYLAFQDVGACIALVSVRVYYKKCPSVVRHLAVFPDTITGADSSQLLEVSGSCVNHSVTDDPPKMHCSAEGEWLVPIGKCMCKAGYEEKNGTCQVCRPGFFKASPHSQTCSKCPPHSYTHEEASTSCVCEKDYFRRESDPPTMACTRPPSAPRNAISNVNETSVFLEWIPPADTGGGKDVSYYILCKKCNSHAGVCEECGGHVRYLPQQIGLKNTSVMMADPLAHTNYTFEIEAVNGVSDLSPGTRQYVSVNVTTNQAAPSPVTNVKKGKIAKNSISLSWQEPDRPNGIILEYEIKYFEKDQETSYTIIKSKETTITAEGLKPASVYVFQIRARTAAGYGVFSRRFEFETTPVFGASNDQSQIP

Row | Binder | IC50 [1] | Kd [2] | Ka [3]
1 | B1 | ~50 µM | – | –
2 | B2 | – | 6.2 µM | 161000 M⁻¹
